What follows are sequences tested on Escherichia coli TOP10 (assay: shrunken log2 fold change of peptide-encoding DNA abundance (4.5 h post-induction vs induction); higher = less antimicrobial activity (less host growth inhibition)). Settings: time post-induction: 4.5 h; library: site-saturation at positions 5, 18, 19, 20.
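Note: peptides expressed intracellularly from a pBAD plasmid library in pooled LB shake-flask culture, induced with 0.3% L-arabinose, DNA abundance read by NGS, three biological replicates, DESeq2 with apeglm shrinkage.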

| Sequence | shrunken log2 fold change |
| --- | --- |
| RRIRVRPPRLPRPRPRPCCDPRP | -0.182 |
| RRIRGRPPRLPRPRPRPLNHPRP | 0.0752 |
| RRIRIRPPRLPRPRPRPWHPPRP | -0.383 |
| RRIRKRPPRLPRPRPRPDLQPRP | 0.0789 |
| RRIRLRPPRLPRPRPRPQPLPRP | 0.00386 |
| RRIRARPPRLPRPRPRPANWPRP | 0.215 |
| RRIRFRPPRLPRPRPRPHSYPRP | -0.0495 |
| RRIRVRPPRLPRPRPRPFECPRP | -0.0624 |
| RRIRFRPPRLPRPRPRPTPQPRP | 0.366 |
| RRIRIRPPRLPRPRPRPFECPRP | -0.0837 |
| RRIRRRPPRLPRPRPRPWAFPRP | 0.00699 |
| RRIRWRPPRLPRPRPRPNAKPRP | 0.188 |
| RRIRKRPPRLPRPRPRPTNTPRP | 1.79 |
| RRIRWRPPRLPRPRPRPEYLPRP | -0.0854 |
| RRIRTRPPRLPRPRPRPNCGPRP | 0.0396 |
| RRIRIRPPRLPRPRPRPIVCPRP | 0.000993 |
| RRIRCRPPRLPRPRPRPNHNPRP | -0.975 |
| RRIRMRPPRLPRPRPRPSLMPRP | 0.428 |
| RRIRERPPRLPRPRPRPYDGPRP | -0.0116 |
| RRIRQRPPRLPRPRPRPQDNPRP | -0.304 |
| RRIRMRPPRLPRPRPRPLSNPRP | -0.0789 |
| RRIRYRPPRLPRPRPRPPMRPRP | 0.317 |
| RRIRRRPPRLPRPRPRPCSFPRP | -0.0171 |
| RRIRLRPPRLPRPRPRPQQGPRP | -0.0774 |
| RRIRPRPPRLPRPRPRPRYLPRP | -0.402 |

| Sequence | shrunken log2 fold change |
| --- | --- |
| RRIRWRPPRLPRPRPRPHSPPRP | -0.09 |
| RRIRMRPPRLPRPRPRPECMPRP | 2.53 |
| RRIRRRPPRLPRPRPRPGDEPRP | -0.0622 |
| RRIRVRPPRLPRPRPRPHMEPRP | -0.0402 |
| RRIRWRPPRLPRPRPRPEGTPRP | 0.103 |
| RRIRMRPPRLPRPRPRPMPSPRP | 0.262 |
| RRIRERPPRLPRPRPRPITKPRP | -0.107 |
| RRIRPRPPRLPRPRPRPRIAPRP | 0.451 |
| RRIRFRPPRLPRPRPRPISFPRP | -0.0661 |
| RRIRGRPPRLPRPRPRPYSIPRP | 0.273 |
| RRIRHRPPRLPRPRPRPGAMPRP | 0.392 |
| RRIRVRPPRLPRPRPRPGNIPRP | -0.116 |
| RRIRFRPPRLPRPRPRPIFQPRP | -0.46 |
| RRIRSRPPRLPRPRPRPYYSPRP | -0.318 |
| RRIRIRPPRLPRPRPRPAKSPRP | -0.0109 |
| RRIRDRPPRLPRPRPRPELAPRP | 1.68 |
| RRIRERPPRLPRPRPRPPIDPRP | 0.0361 |
| RRIRTRPPRLPRPRPRPAMFPRP | -0.686 |
| RRIRWRPPRLPRPRPRPCICPRP | 0.16 |
| RRIRKRPPRLPRPRPRPVAWPRP | 0.315 |
| RRIRDRPPRLPRPRPRPEKTPRP | 0.0897 |
| RRIRWRPPRLPRPRPRPNPFPRP | 0.208 |
| RRIRSRPPRLPRPRPRPMQHPRP | -0.122 |
| RRIRNRPPRLPRPRPRPFRWPRP | 0.0512 |
| RRIRERPPRLPRPRPRPPKCPRP | 0.0212 |

| Sequence | shrunken log2 fold change |
| --- | --- |
| RRIRDRPPRLPRPRPRPPQFPRP | -0.15 |
| RRIRSRPPRLPRPRPRPHQQPRP | -0.0386 |
| RRIRVRPPRLPRPRPRPVHSPRP | 0.0275 |
| RRIRFRPPRLPRPRPRPDCTPRP | -0.0512 |
| RRIRLRPPRLPRPRPRPKDKPRP | 0.112 |
| RRIRDRPPRLPRPRPRPYSCPRP | 0.0113 |
| RRIRFRPPRLPRPRPRPSNTPRP | -0.422 |
| RRIRSRPPRLPRPRPRPWFDPRP | -0.271 |
| RRIRWRPPRLPRPRPRPAASPRP | 0.404 |
| RRIRSRPPRLPRPRPRPEQIPRP | 0.157 |
| RRIRDRPPRLPRPRPRPQKLPRP | -0.307 |
| RRIRERPPRLPRPRPRPIYPPRP | -0.0605 |
| RRIRDRPPRLPRPRPRPCSFPRP | -0.0466 |
| RRIRGRPPRLPRPRPRPMHYPRP | -0.165 |
| RRIRPRPPRLPRPRPRPGGCPRP | 0.295 |
| RRIRPRPPRLPRPRPRPDFYPRP | -0.156 |
| RRIRHRPPRLPRPRPRPIVMPRP | -0.012 |
| RRIRWRPPRLPRPRPRPSYKPRP | -0.479 |
| RRIRWRPPRLPRPRPRPFCNPRP | -0.24 |
| RRIRDRPPRLPRPRPRPRKVPRP | 0.187 |
| RRIRCRPPRLPRPRPRPWPHPRP | -0.0205 |
| RRIRVRPPRLPRPRPRPENCPRP | -0.0723 |
| RRIRYRPPRLPRPRPRPTNGPRP | -0.126 |
| RRIRERPPRLPRPRPRPKFRPRP | -0.315 |
| RRIRPRPPRLPRPRPRPWSNPRP | -0.52 |

Source: the supplement of paper PMC9112550, “Optimization of the antimicrobial peptide Bac7 by deep mutational scanning” (BMC Biology, 2022)
